Source: publication PMC10138814, “Structural Insights into the Binding of Red Fluorescent Protein mCherry-Specific Nanobodies” (International Journal of Molecular Sciences, 2023)

What was measured:
Settings in all cases: both partners purified
DsRed = target: T1, DsRed (Discosoma sp., UniProt Q9U6Y8); experiment: BLI; His-SUMO-LaM nanobody (100 nM) loaded on Ni-NTA biosensors; mCherry or DsRed in solution; 20 mM HEPES pH 7.4, 150 mM NaCl, 0.005% Tween-20; association 600 s, dissociation 600 s; 1:1 global fit
T1 construct: DsRed red fluorescent protein; PDB 1ZGO was used for structural alignment; His6-SUMO-DsRed printed as 39.6 kD; also called tetrameric DsRed protein; His6-SUMO-DsRed (before cleavage); source: prokaryotic expression system, purified (tags removed by ULP1 on the column); not shown: His6, N-terminal, cleaved; SUMO, N-terminal, cleaved

mCherry [1] = target: T2, mCherry (Discosoma sp. DsRed-derived, engineered …, chromophore (residues not given)); experiment: as above
T2 construct: Engineered monomeric derivative of DsRed; also called His10-TEV site-mCherry (before cleavage); H10T-mCherry; source: E. coli BL21(DE3), purified (Ni-NTA, TEV cleavage on the column); not shown: His10, N-terminal, cleaved

mCherry [2] = target: T2, mCherry; experiment: ITC; 100 uM nanobody in the syringe into 10 uM mCherry (or 8.9 uM mCherry-LaM1 or mCherry-LaM3 complex) in the cell; 25 °C; one set of sites

T1 sequence (Q9U6Y8 whole entry): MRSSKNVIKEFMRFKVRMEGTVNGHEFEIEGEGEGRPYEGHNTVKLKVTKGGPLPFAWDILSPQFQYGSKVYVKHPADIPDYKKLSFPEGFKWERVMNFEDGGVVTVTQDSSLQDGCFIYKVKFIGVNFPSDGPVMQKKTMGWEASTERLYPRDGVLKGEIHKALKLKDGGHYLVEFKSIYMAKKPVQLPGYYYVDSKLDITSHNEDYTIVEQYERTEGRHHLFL

B1: His-SUMO-LaM3 (VHH)
VHH: QVQLVQSGGGLVQAGGSLRLSCAASGRTFSDIAVGWFRQTPGKEREFVAAISWSGLIINYGDSVEDRFTISRDNAKSAVYLQMNSLKPEDTAVYYCAARIGMNYYYAREIEYPYWGQGTQVTVSK
notes: held in PDB 8ILX; Captured by its His tag on NTA biosensors in BLI; vector pET28a-SUMO; also called Sumo-His tagged LaM3; source: E. coli BL21(DE3), purified (Ni-NTA, eluted with imidazole); not shown: His, N-terminal, kept; SUMO, N-terminal, kept
DsRed
  Kd: 7130 nM
  koff: 0.000443 s⁻¹
  kon: 62.2 ± 1.02 M⁻¹ s⁻¹
mCherry [1]
  Kd: 30.6 nM
  koff: 0.00324 s⁻¹
  kon: 106000 M⁻¹ s⁻¹

B2: LaM3 (VHH)
VHH: QVQLVQSGGGLVQAGGSLRLSCAASGRTFSDIAVGWFRQTPGKEREFVAAISWSGLIINYGDSVEDRFTISRDNAKSAVYLQMNSLKPEDTAVYYCAARIGMNYYYAREIEYPYWGQGTQVTVSK
notes: Tag-removed form; also called llama nanobody against mCherry 3; source: E. coli BL21(DE3), purified (Ni-NTA, ULP1 cleavage on the column, ion exchange or size exclusion chromatography); not shown: His, N-terminal, cleaved; SUMO, N-terminal, cleaved
mCherry [2]
  Kd: 13.7 nM
  dH: -13.7 ± 0.157 kcal/mol
  stoichiometry N: 0.913 sites

B3: His-SUMO-LaM8 (VHH)
VHH: QVQLVESGGGLVQAGGSLRLSCAVSGRPFSEYNLGWFRQAPGKEREFVARIRSSGTTVYTDSVKGRFSASRDNAKNMGYLQLNSLEPEDTAVYYCAMSRVDTDSPAFYDYWGQGTQVTVST
notes: held in PDB 8IM0; Captured by its His tag on NTA biosensors in BLI; vector pET28a-SUMO; also called Sumo-His tagged LaM8; source: E. coli BL21(DE3), purified (Ni-NTA, eluted with imidazole); not shown: His, N-terminal, kept; SUMO, N-terminal, kept
mCherry [1]
  Kd: 36.8 nM
  koff: 0.00926 s⁻¹
  kon: 252000 M⁻¹ s⁻¹

B4: LaM8 (VHH)
VHH: QVQLVESGGGLVQAGGSLRLSCAVSGRPFSEYNLGWFRQAPGKEREFVARIRSSGTTVYTDSVKGRFSASRDNAKNMGYLQLNSLEPEDTAVYYCAMSRVDTDSPAFYDYWGQGTQVTVST
notes: Tag-removed form; also called llama nanobody against mCherry 8; source: E. coli BL21(DE3), purified (Ni-NTA, ULP1 cleavage on the column, ion exchange or size exclusion chromatography); not shown: His, N-terminal, cleaved; SUMO, N-terminal, cleaved
mCherry [2]
  Kd: 199 nM
  dH: -11.2 ± 1.51 kcal/mol
  stoichiometry N: 0.842 sites

B5: His-SUMO-LaM1 (VHH)
VHH: QVQLVESGGGLVQAGDSLRLSCAASGRTFENYAMGWFRQAPGKEREFVGAVSWGGGRTYYADNVKGRFTISRDNAKKNTVYLQMNSLKPEDTAVYYCAAKSVLTIATMRVPDEYNYWGQGTQVTVS
notes: held in PDB 8IM1; Captured by its His tag on NTA biosensors in BLI; vector pET28a-SUMO; also called Sumo-His tagged LaM1; source: E. coli BL21(DE3), purified (Ni-NTA, eluted with imidazole); not shown: His, N-terminal, kept; SUMO, N-terminal, kept
mCherry [1]
  Kd: 12.9 nM
  koff: 0.00117 s⁻¹
  kon: 91300 M⁻¹ s⁻¹

B6: LaM1 (VHH)
VHH: QVQLVESGGGLVQAGDSLRLSCAASGRTFENYAMGWFRQAPGKEREFVGAVSWGGGRTYYADNVKGRFTISRDNAKKNTVYLQMNSLKPEDTAVYYCAAKSVLTIATMRVPDEYNYWGQGTQVTVS
notes: Tag-removed form; also called llama nanobody against mCherry 1; source: E. coli BL21(DE3), purified (Ni-NTA, ULP1 cleavage on the column, ion exchange or size exclusion chromatography); not shown: His, N-terminal, cleaved; SUMO, N-terminal, cleaved
mCherry [2]
  Kd: 289 nM
  dH: -28.7 ± 0.906 kcal/mol
  stoichiometry N: 1 sites
